In article PMC4579573, “Higher -Order Assembly of BRCC36–KIAA0157 Is Required for DUB Activity and Biological Function” (Molecular cell, 2015):

Columns and labels:
[1] = target: the molecule itself; experiment: SEC-MALS; complexes and subcomplexes purified from insect cells; size exclusion chromatography coupled to multi-angle light scattering (Figures S1B-E and S8E-G)
[2] = target: the molecule itself; experiment: crystal structure; CfBRCC36–KIAA0157ΔC, seleno-methionine-SAD, two heterodimers in the asymmetric unit, 2.55 Å

B1: C. floridanus BRISC complex (complex)
chain 1: MDDSSLQKVELQTDVYMVCLQHALSTENFEVMGLLIGNFACGIAKISAVIILRRLDKKKDRVEISSEQLLKAAAEAERLTVELNRPMRVLGWYHSHPHITVCPSHVDVRTQATYQTMDHSFVGLIFSVFSEGKESKEHEIFLNCFQSDNGEATEIPLEIVHTPDISDRCLRTMTDLSKILVQEEEDMAEACKDHPDVLASIHNNAVRTRALIHITDIITKPLVQTFEKRIALNKLRATHLQRQLQELQKMCNG
chain 2: MADSDLLVTISGAALSLLFFENVRSVGNQMGFLLGEALEFIVKTYTDSDNQVETVKIHINVEAIVTCPLADLLHDSTNHINKEKLKDFVRDKSKQVIGWFCFRRNTTNLTLTLKDKLLHKQFASHFSGVNGCKEDFFLTCLLNASTSETSGTHKFRHVFLRHNKRGMFEPISLKINNLGDDASRHDGSDYKPTPVRKSTRTPDSFTKLIESLNLDVARIDGLDSAMLIQKAAEHHLMSLIPKVCESDLEVAELEKQVHELKIKIATQQLAKRLKINGENCDRISKASKDNCFSEKIDSSKKNEVRIGDDACLQREHIPSCTQSVGPNNRTVCRNTAACIAKSAEKSRRAGRSNLQESGNQQQETQNFFTNSRRSIPEIATESICQEGSEISMGRGRGSGRGSHEFTPGMKKIRRTPGTSHMHSSRERSTTPPEQDFSDAECPISSPVLRSYSQVTKKTNLDKCNSMAPLDI
chain 3: MLNQQHPLLSTIDSYIEPLLKRVLQTKRLGVCCGLIKLDSVSSSCNKSKNDCFKLSIPYAGEHLVWSVLFDSQYPEMGPDFIFNDQSFLADPDINTLSTWIPSLTKWNPNDIDALLNVLSELLLYYKEHQLHLLGKQGDRLQFEYSTLVGETEISREDIEVIMLPLGTKPTEARFLIRIVMDYSRLPPRINKSQNDEAMLIIMFYGPDWNRIIPQLYLSKTLEDIFGGPESLHIPPFPSSKYLMDYVPEVKKFIDEKIHNVVQSFESRKSFITVLIVSQRGSILEYDAIEFNWISMLLEHRDFHFLIHFHLPSTFPKEKPQITLQSVYHMTSQGTLYKEVLDDTPYSPRWQIILMVDKLLTYIMENAVQKFQANSMKNRF
[1]
  stoichiometry N: 2

B2: CfBRCC36 (enzyme, C. floridanus, UniProt E2AXC7 1-253, looked up)
chain: MDDSSLQKVELQTDVYMVCLQHALSTENFEVMGLLIGNFACGIAKISAVIILRRLDKKKDRVEISSEQLLKAAAEAERLTVELNRPMRVLGWYHSHPHITVCPSHVDVRTQATYQTMDHSFVGLIFSVFSEGKESKEHEIFLNCFQSDNGEATEIPLEIVHTPDISDRCLRTMTDLSKILVQEEEDMAEACKDHPDVLASIHNNAVRTRALIHITDIITKPLVQTFEKRIALNKLRATHLQRQLQELQKMCNG
notes: BRCC36 of Camponotus floridanus, residues 1-253; The crystal of PDB 5CW4 held seleno-methionine protein; also called C. floridanus BRCC36; B36; source: insect cells (MultiBac expression system), co-expressed with its partners, purified
[2]
  binding result: binds

B3: zebrafish BRISC complex (complex)
chain 1: MAVNAVHLESDAFLVCMNHALSTEKEEVMGLCIGEVDTNRIVHIHSVIILRRSDKRKDRVEISPEQLSAASTEAERLAEMTGRPMRVVGWYHSHPHITVWPSHVDVRTQAMYQMMDQGFVGLIFSCFIEDKNTKTGRVLYTCFQSVQAQKGSEYERIEIPIHVVPHEAIGKVCLESAVELPRILCQEEQDTYRRIHSLTHLDPITKIHNGSVFTKNLCSQMSAISGPLLQWLEDRLEQNKQSIITLQKEKELLTQELAAL
chain 2: not shown
chain 3: MNSLSPELALSRISPELRPLLCSIVRNGRVGLDSSSCLRITDLKSGCTSLMPGPCCDRFKLHIPYAGETLKWDIIFNARDPELPPDFIFGEDADFLPEPSELPNLVSWDSGKPECLLLLVKEMLQQYHQYQCQRLRDSSRLLFEYDSLLEDPNYGRNMEIYAGRKNSWTGEFSARFLLKLPVDFSNIPIYLLKDTALDPGEDVALLSVSFEDAEATQVFPKLYLSPSIEHALGGSSALHIPAFPSGGCLIDYVPQVCQLLTNKVQYVIQGYHKRREYIAAFLSHFGMGVVEYDAVGFTKLTLLLMWKDFCFLVHVDLPLYFPRDQPTLTFQSIYHFTSSGQLYSQVQKSYPYSPRWDGNEMAKRAKAYFKSFIPQFQEGAFANGKL
chain 4: METTEPGQADGEERMMDLRPRTRSNPEGAEDRRSSTGSLNSSLPSAPQPAVGSRVEGEGEAASSDSPPVSATAIAATASVPVAAVGNTTTTNTASLPAMSPAVKERPKPSQPTMPTQIPPSAELHLRAPRVNCPEKVIICLDLSEEMSLQKLESINGSKTNALNISQKMIEMFVRTKHKIDKRHEFALVVVNDDAMWLSGFTSDPRELCSCLYDLETNVCESFNLEDLFNVILQKIELPQMENIQTIPPPFVVRTLLVFSRHAGMLQFNPSDAVKKMLQSPYFFFDVVFLHNGTEEQTEDTSWKDVYASFCELDTKGMCYRFEVSLCGPAIELHNCMAKLLCHPLQRPFQSHASYSLLEDEDTLENEATV
[1]
  stoichiometry N: 2

B4: Dr BRCC36–KIAA0157 binary complex (complex)
chain 1: MAVNAVHLESDAFLVCMNHALSTEKEEVMGLCIGEVDTNRIVHIHSVIILRRSDKRKDRVEISPEQLSAASTEAERLAEMTGRPMRVVGWYHSHPHITVWPSHVDVRTQAMYQMMDQGFVGLIFSCFIEDKNTKTGRVLYTCFQSVQAQKGSEYERIEIPIHVVPHEAIGKVCLESAVELPRILCQEEQDTYRRIHSLTHLDPITKIHNGSVFTKNLCSQMSAISGPLLQWLEDRLEQNKQSIITLQKEKELLTQELAAL
chain 2: not shown
[1]
  stoichiometry N: 2
